Measured values taken from patent US20220048996A1 (F STAR BETA, published 2022).

Key:
[1] = target: T1, human OX40 expressed on DO11.10 cells (DO11.10-hOX40) (human, UniProt P43489 29-277); experiment: cell-based or functional assay
T1 sequence: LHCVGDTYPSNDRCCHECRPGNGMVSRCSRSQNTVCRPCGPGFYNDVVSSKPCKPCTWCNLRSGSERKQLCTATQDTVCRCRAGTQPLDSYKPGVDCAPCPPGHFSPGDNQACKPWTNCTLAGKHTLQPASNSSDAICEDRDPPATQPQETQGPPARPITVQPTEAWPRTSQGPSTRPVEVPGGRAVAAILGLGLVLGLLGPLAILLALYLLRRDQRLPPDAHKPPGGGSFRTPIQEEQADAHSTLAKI

hOX40-mFc = target: T2, hOX40-mFc (human); experiment: SPR, antibody captured via anti-human Fab, dimeric antigen flowed, 1:1 fit
T2 construct: Dimeric; also called human OX40-mFc
T2 chain: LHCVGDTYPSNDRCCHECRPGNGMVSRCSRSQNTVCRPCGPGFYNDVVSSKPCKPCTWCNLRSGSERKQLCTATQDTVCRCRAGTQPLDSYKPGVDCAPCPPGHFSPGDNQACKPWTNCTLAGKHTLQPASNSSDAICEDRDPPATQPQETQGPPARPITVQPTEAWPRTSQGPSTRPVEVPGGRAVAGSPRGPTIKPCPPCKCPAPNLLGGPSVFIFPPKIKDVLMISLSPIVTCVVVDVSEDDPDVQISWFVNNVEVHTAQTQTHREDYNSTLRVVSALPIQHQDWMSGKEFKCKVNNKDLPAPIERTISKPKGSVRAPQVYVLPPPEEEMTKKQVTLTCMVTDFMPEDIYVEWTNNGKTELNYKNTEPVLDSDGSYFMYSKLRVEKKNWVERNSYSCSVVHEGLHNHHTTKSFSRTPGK
Protocol: (§1) For OX40 affinity determination a Biacore CM5 chip was coated with anti-human Fab using a Human Fab Capture Kit (GE Healthcare 28958325) according to manufacturer's conditions, to a surface density of approximately 8000 RU. […] The association time was 2 min and the dissociation time was 8 min. Running buffer was HBS-EP. Flow cells were regenerated by injecting glycine-HCl at pH 2.1 at a flow rate of 30 μl/min for 30 seconds.
(§2) The binding kinetics were fit with a 1:1 Langmuir model to generate binding association (kₐ) and dissociation (kd) rates. Equilibrium binding constants (KD) were calculated by dividing the dissociation rate by the association rate for each sample. Data analysis was performed with BiaEvaluation software version 3.2.

cOX40-mFc = target: T3, cOX40-mFc (cynomolgus); experiment: as above
T3 construct: Dimeric; also called cyno OX40-mFc
T3 chain: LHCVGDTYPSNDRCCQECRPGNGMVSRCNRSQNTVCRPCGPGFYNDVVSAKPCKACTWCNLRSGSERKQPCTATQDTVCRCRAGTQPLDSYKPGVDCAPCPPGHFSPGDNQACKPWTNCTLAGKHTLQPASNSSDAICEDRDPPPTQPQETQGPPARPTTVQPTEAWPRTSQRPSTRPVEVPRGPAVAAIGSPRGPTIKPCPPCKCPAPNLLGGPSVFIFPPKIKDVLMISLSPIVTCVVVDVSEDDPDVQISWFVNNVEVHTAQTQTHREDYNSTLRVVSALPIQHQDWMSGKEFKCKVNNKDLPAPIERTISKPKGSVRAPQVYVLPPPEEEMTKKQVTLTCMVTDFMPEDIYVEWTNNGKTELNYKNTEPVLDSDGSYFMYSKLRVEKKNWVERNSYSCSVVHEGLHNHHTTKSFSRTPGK
Protocol: as §1, §2

[2] = target: T4, human CD137 expressed on DO11.10 cells (DO11.10-hCD137) (human, UniProt Q07011 24-255); experiment: flow cytometry on DO11.10 cells expressing the target, mean ± SD of three experiments
T4 construct: also called CD137 on human T cells
Protocol: 50 μl of the antibody dilutions were added to the wells containing cells (final volume 100 μl) and incubated at 4° C. for 1 hour. […] The plates were washed and resuspended in 100 μl of PBS containing DAPI (Biotium, cat no 40043) at 1 μg/ml. The plates were analysed using a Canto II flow cytometer (BD Bioscience) and the data analysed using FlowJo. Dead cells were identified by their higher fluorescence on the UV (405 nm/450/50) channel and excluded from analysis. […] The GMFI data was fit using log (agonist) vs response (three parameters) in Graph Pad Prism Software to generate EC₅₀ values.
However, in this experiment, instead of using HEK cells to analyse the non-specific binding, non-transduced DO11.10 cells were used. […] The experiment was repeated three times to increase the reliability of the EC₅₀ values calculated.

T4 sequence (Q07011 24-255): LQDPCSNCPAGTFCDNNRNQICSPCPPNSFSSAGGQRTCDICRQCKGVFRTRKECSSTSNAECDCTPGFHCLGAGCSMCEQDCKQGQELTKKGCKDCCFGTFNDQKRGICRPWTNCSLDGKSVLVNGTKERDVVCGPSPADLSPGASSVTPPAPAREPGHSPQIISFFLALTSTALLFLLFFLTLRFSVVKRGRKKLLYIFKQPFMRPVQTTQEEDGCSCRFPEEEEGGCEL

B1: FS20-22-49AA/FS30-10-16 (bispecific antibody, human IgG1, kappa, L234A L235A)
heavy: EVQLLESGGGLVQPGGSLRLSCAASGFTFSSYDMSWVRQAPGKGLEWVSDIDPTGSKTDYADSVKGRFTISRDNSKNTLYLQMNSLRAEDTAVYYCARDLLVYGFDYWGQGTLVTVSSASTKGPSVFPLAPSSKSTSGGTAALGCLVKDYFPEPVTVSWNSGALTSGVHTFPAVLQSSGLYSLSSVVTVPSSSLGTQTYICNVNHKPSNTKVDKKVEPKSCDKTHTCPPCPAPEAAGGPSVFLFPPKPKDTLMISRTPEVTCVVVDVSHEDPEVKFNWYVDGVEVHNAKTKPREEQYNSTYRVVSVLTVLHQDWLNGKEYKCKVSNKALPAPIEKTISKAKGQPREPQVYTLPPSRDEYWDQEVSLTCLVKGFYPSDIAVEWESNGDEQFAYKTTPPVLDSDGSFFLYSKLTVDQYRWNPADYFSCSVMHEALHNHYTQKSLSLSPG
light: EIVLTQSPGTLSLSPGERATLSCRASQSVSSSYLAWYQQKPGQAPRLLIYGASSRATGIPDRFSGSGSGTDFTLTISRLEPEDFAVYYCQQSYSYPVTFGQGTKVEIKRTVAAPSVFIFPPSDEQLKSGTASVVCLLNNFYPREAKVQWKVDNALQSGNSQESVTEQDSKDSTYSLSSTLTLSKADYEKHKVYACEVTHQGLSSPVTKSFNRGEC
notes: IgG1 with LALA; also called OX40/CD137 mAb^2; copies: 2 + 2
SEA assay (PBMC), hIL-2 max response, crosslinked [1]: 33800 pg/mL
SEA assay (PBMC), hIL-2 max response, no crosslinker [1]: 35100 pg/mL
SEA assay (PBMC), hIL-2 release EC50, crosslinked [1]: 0.1 nM
SEA assay (PBMC), hIL-2 release EC50, no crosslinker [1]: 0.14 nM
Kd (hOX40-mFc): 0.214 nM
Kd (cOX40-mFc): 0.861 nM
EC50 [2]: 0.11 nM
